The experiment concerns the target trkA + p75 receptors on rat PC12 pheochromocytoma cells (rat) (UniProt P35739). The experiment is described as follows: 125I-hNGF displacement, PC12 cells (trkA+p75), 4 C.

The results in this text go back to patent US7144983.

As a reminder, the IC50 is the concentration that gives 50% inhibition.

trkA + p75 receptors on rat PC12 pheochromocytoma cells (rat), sequence (P35739 33-799, chain 1 of 2): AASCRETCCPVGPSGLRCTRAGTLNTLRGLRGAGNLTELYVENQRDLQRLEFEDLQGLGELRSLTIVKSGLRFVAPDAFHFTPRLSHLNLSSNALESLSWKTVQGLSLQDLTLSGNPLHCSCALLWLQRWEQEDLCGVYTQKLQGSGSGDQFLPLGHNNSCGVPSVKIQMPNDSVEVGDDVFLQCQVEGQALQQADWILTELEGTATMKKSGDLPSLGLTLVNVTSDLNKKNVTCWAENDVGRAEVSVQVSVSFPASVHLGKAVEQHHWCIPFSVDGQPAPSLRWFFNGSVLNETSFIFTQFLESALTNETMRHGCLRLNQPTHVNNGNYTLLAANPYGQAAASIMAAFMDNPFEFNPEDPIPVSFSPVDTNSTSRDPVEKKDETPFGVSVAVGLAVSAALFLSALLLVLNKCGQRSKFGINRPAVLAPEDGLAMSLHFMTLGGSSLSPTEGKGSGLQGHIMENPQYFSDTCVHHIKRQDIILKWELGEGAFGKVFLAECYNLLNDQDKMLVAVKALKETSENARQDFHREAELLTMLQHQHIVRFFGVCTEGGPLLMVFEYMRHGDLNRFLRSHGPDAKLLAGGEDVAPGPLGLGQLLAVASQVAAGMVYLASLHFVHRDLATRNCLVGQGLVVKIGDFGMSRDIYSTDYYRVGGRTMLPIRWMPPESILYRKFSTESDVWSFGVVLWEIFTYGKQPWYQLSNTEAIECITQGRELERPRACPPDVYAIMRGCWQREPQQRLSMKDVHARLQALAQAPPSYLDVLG
trkA + p75 receptors on rat PC12 pheochromocytoma cells (rat), sequence (P07174 30-425, chain 2 of 2, further chain): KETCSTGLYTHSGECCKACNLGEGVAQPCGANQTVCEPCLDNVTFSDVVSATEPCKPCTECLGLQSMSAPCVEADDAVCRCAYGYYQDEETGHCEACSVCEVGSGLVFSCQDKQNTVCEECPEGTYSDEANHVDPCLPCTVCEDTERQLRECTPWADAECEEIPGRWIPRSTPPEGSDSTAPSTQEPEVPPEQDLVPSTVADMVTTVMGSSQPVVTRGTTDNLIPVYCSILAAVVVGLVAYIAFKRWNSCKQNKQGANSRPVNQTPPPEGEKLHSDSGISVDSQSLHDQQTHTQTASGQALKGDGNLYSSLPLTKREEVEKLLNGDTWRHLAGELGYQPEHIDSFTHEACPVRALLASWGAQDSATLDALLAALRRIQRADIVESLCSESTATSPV

Regarding “hNGF (1-118) (from UniProt P01138 122-239) (ligand)”, the IC50 is 0.05 nM.

As for “hNGF Mut 2 (H4D) (from UniProt P01138 122-241) (ligand)”, the 50% inhibitory concentration (IC50) amounted to 0.43 nM.

As to “hNGF Mut 3 (R9A) (from UniProt P01138 122-241) (ligand)”, the IC50 came out at 0.18 nM.

Take “hNGF Mut 4 (H4A, H8A, R9A) (from UniProt P01138 122-241) (ligand)”: the IC50 is 0.39 nM.

Consider “hNGF (6-118) (from UniProt P01138 127-239) (ligand)”, for which the IC50 was found to be 0.13 nM.

“hNGF Mut 1 (H4A) (from UniProt P01138 122-241) (ligand)”: the IC50 was 0.18 nM.

Consider “mNGF (1-118) (from UniProt P01139 122-239) (ligand)”, for which the IC50 came to 0.06 nM.

For “hNGF (10-118) (from UniProt P01138 131-239) (ligand)”, the IC50 is 4.1 nM.
